The record followed here is patent US20040022780A1, “Serine protease and topical retinoid compositions useful for treatment of acne vulgarise and production of anti-aging effects” (priority 1997, published 2004).

One series relates to Elastin mRNA. Kind of series: RT-PCR gene expression in skin, elastin. In kind it is in vivo, Rhino mouse. The conditions noted are these: increasing concentrations of trypsin (0.0001-0.01% (w/v)) daily for five days. As to the method: (§1) Rhino mice of Example 1 were treated daily with trypsin compositions (0% (w/v), 0.0001% (w/v), 0.001% (w/v), and 0.01% (w/v)), as prepared in Example 2, for five days and sacrificed at day eight. The skins of vehicle treated mice and trypsin-treated mice were obtained as described in Example 3, then their total RNAs were extracted using “RNA Stat-60” reagent available from Tel-Test “B,” Inc. as described in Chomczymski, “Single Step Method of RNA Isolation By Acid Guanidinium Thiocyanate-phenol-chloroform extraction,” 162 Anal. Biochem. 156-59 (1987) which is incorporated herein by reference in its entirety. A sufficient amount of RNase-free DNase available from Promega, Corp. under the tradename “RQ1 RNase-free DNase” was then added to the extracted RNA from each mouse such that each respective product contained 200 ng of DNased-RNA using the procedure set forth in “RNase-free DNase” protocol published by Promega, Corp. (May, 1995). […]
(§2) The PCR products were then analyzed on 2% agarose/ethidium bromide gels according to methods well-known in the art in order to compare the level of expression of certain genes in skins of trypsin-treated and untreated mice. […]

For a further series, the system named is Transglutaminase mRNA. The series is described as follows: RT-PCR gene expression in skin, transglutaminase. In kind it is in vivo, Rhino mouse. The settings on record: increasing concentrations of trypsin (0.0001-0.01% (w/v)) daily for five days. The method, then:
as §1, §2

The test system of another series is involucrin. The series is described as follows: RT-PCR gene expression in skin, involucrin. In kind it is in vivo, Rhino mouse. The settings on record: trypsin (0.0001-0.01% (w/v)) daily for five days, dose dependent. The method, then: as §1, §2
In a further series the test system is Rhino mouse skin. Kind of series: Delivery of fluorescently labeled trypsin into hair follicles (fluorescent microscopy). In kind it is in vivo. As to the method: About 100 μL of the topically active trypsin composition of Example 2 was applied to the dorsal side of each Rhino mouse of Example 1. The trypsin used in this composition was fluorescently-labeled with a protein fluorescent labeling kit available from Molecular Probes, Inc. in accordance with its accompanying protocol (1996). At one and four hours after the application of the fluorescent trypsin treatment, a 1 cm by 2 cm sample of the skin surface of each mouse was isolated from each mouse with scissors, fixed with a 10% buffered formalin solution having a pH of about 6.9-7.1 at 25° C. available from Stephens Scientific, then formed into a paraffin block according to well-known procedures, and examined with fluorescent microscopy according to well-known methods.
This Example was repeated on similar Rhino mice of Example 1, with the exception that these mice were treated daily for 5 days with the 1% (w/v) trypsin composition of Example 2 prior to the fluorescent trypsin treatment. Four hours after the application of the fluorescent trypsin treatment on the fifth day, the skins of these mice were analyzed using similar fluorescent microscopic methods. […] This loss of barrier integrity is reflected in the values for transepidermal water loss (“TEWL”) as described in Example 4 and Table 1 herein.

The test system of series [1] is follicular epithelium of Rhino mouse skin. Kind of series: TUNEL stain of skin for apoptotic bodies. In kind it is in vivo. The conditions noted are these: 0.1% (w/v) trypsin daily for five days, sacrificed at day eight. As to the method: Rhino mice of Example 1 were treated daily with a 0.1% (w/v) trypsin composition of Example 2 for five days and sacrificed at day eight.
1 cm by 2 cm samples of the skins of untreated, vehicle treated, and trypsin treated mice were obtained via the procedure set forth in Example 3 then analyzed using a TdT-mediated dUTP-biotin nick end labeling (“TUNEL”) stain procedure as disclosed in Gavrieli et al., “Identification of Programmed Cell Death in situ Via Specific Labeling of Nuclear DNA Fragmentation”, 119 Jl. Cell Biology 493-501 (1992) (“Gavrieli”). During this procedure, the prepared skin sections were stained using an “ApopTag™ Plus In Situ Apoptosis Detection Kit” available from Oncor, Inc. as specified in the “ApopTag™ Plus In Situ Apoptosis Detection Kit” protocol by Oncor, Inc. (Feb. 1995), which is based upon the labeling of fragmented DNA ends as described in Gavrieli. FIGS. 5(a-d) show a histological analysis wherein the stain has a peroxidase end point (brown) and a methyl green counter-stain. The resulting representations of this are provided in FIGS. 5(a&b) which are vehicle treated and FIGS. 5(c&d) which are trypsin treated.

Series [2] deals with utriculi of Rhino mouse skin. The series is described as follows: Rhino mouse utriculus size reduction (whole mount epidermis image analysis). In kind it is in vivo. The conditions noted are these: single trypsin 1% (w/v) treatment, analyzed seven days later.

B1: trypsin (protein, UniProt P00760 24-246, looked up)
Serine protease 1: IVGGYTCGANTVPYQVSLNSGYHFCGGSLINSQWVVSAAHCYKSGIQVRLGEDNINVVEGNEQFISASKSIVHPSYNSNTLNNDIMLIKLKSAASLNSRVASISLPTSCASAGTQCLISGWGNTKSSGTSYPDVLKCLKAPILSDSSCKSAYPGQITSNMFCAGYLEGGKDSCQGDSGGPVVCSGKLQGIVSWGSGCAQKNKPGVYTKVCNYVSWIKQTIASN
notes: lyophilyzed trypsin from Sigma-Aldrich, a serine protease, in Hepes buffer mixed with GDL liposomes
For the molecule B1, the “Elastin mRNA” value in the series on Elastin mRNA is given as “increased”. The “Transglutaminase mRNA level” value in the series on Transglutaminase mRNA is “reduced to below detection level”. Moreover, the level of involucrin entry with involucrin was “increased”. Further, the “location of fluorescent labeling in skin” value in the series with Rhino mouse skin (1 hour and 4 hours after topical application of about 100 μL fluorescent trypsin composition) is “almost all of the fluorescent labeling was found within the utriculi and sebaceous glands”. Further, the “change in delivery route into utriculi and sebaceous glands” value in the series with Rhino mouse skin (4 hours after fluorescent trypsin, following 5 days of daily 1% (w/v) trypsin) was “no major change”. For the same molecule, the “barrier integrity (staining at outer portion of stratum corneum)” value in the series on Rhino mouse skin (following 5 days of daily 1% (w/v) trypsin) was “some loss of barrier integrity”. The “apoptotic bodies within the follicular epithelium (TUNEL)” value in series [1] is recorded as “elimination of all the apoptotic bodies”. In addition, in series [2], the “effect on utriculus size reduction of a single treatment” value was “no effect”.
